{"source": "patent US20210113690A1", "about": "(BERLIN CHEMIE, published 2021)", "binders": {"B1": {"name": "LY75_A1 monoclonal antibody (antibody, human IgG1, kappa, V domains shown)", "VH": "EVQLVESGGGLVKPGGSLRLSCAASGFTYSNAWMSWVRQAPGKGLEWVGRIKSKTDGGTTDYAAPVQGRFTISRDDSKNTLYLQMNSLKTEDTAVYYCTIFGVVSFDYWGQGTLVTVSS", "VL": "DVQMTQSPSSLSASVGDRVTITCRASQSISDYLSWYQQRPGKAPNLLIYAASNLKTGVPSRFSGSGSGTDFTLTISTLQPEDFATYYCQQSYRSPWTFGQGTKVEIKR", "notes": "also called LY75A1 antibody; antibody LY75_A1"}}, "key": {"[1]": {"molecular_target": "T1, LY75 (DEC-205) on COLO205 cells (human, UniProt O60449 28-1722)", "T1 construct": "also called Lymphocyte antigen 75", "T1 sequence (O60449 28-1722 limits assumed)": "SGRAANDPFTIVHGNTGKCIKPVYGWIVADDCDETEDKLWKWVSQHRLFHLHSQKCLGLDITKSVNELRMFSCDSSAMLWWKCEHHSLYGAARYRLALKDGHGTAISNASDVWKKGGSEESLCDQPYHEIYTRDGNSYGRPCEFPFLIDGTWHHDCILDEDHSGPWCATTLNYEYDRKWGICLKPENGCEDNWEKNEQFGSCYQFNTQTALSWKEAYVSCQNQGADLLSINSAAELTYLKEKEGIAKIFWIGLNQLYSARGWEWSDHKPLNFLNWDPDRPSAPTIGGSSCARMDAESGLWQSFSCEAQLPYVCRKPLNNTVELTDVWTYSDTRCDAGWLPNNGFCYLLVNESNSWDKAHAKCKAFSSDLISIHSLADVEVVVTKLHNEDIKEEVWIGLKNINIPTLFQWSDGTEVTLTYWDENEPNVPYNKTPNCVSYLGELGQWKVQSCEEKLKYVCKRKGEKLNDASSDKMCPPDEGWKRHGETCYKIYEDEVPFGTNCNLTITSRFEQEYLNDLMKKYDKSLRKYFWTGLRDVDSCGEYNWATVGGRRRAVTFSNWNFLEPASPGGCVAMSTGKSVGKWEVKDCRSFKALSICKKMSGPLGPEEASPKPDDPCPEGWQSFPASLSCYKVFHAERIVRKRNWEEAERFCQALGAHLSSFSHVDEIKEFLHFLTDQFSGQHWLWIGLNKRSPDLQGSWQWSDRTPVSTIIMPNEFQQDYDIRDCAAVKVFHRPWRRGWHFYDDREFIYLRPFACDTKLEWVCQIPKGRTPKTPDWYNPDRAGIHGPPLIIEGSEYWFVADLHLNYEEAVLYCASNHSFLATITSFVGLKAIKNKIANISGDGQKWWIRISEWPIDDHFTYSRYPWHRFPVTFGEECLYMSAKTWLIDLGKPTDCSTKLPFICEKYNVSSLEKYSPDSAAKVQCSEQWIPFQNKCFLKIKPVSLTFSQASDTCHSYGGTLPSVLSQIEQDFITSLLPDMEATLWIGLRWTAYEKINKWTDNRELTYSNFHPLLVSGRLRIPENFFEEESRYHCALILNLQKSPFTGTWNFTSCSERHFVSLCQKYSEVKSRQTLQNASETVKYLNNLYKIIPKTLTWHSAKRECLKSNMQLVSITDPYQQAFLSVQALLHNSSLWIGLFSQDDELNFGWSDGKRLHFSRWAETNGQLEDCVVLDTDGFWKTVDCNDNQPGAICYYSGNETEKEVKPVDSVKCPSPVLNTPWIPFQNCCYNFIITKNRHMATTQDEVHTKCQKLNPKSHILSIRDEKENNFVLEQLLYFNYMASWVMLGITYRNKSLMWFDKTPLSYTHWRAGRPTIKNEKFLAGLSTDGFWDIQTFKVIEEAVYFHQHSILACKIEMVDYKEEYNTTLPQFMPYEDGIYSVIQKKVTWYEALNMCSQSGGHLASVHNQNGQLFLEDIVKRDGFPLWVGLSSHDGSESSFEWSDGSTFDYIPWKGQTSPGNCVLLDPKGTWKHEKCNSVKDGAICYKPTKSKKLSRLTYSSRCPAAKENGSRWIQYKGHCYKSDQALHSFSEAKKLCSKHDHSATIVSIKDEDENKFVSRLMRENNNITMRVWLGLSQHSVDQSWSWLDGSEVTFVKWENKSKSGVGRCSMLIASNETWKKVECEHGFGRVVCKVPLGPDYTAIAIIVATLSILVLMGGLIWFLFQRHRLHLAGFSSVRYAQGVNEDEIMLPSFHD", "assay": "competitive FACS on COLO205 cells; competitor anti-LY75-mAb-MCC-DM1", "method": "Cells were washed and resuspended in FACS buffer (PBS+2% FBS), neutralized with growth media, and counted. Cells were plated at 50,000 cells per well in a V Bottom 96-well plate. Cells were washed once with FACS buffer (PBS (Fisher, catalog #SH30028-03)+2% FBS). […] Test wells that required single or multiple staining steps were left in FACS buffer as appropriate to ensure the final staining was completed simultaneously for all conditions tested. Two wells were left unstained in FACS buffer as controls.\nAfter the incubation with blocking antibody, cells were washed twice in FACS buffer. […] The cells were washed as above and resuspended in FACS buffer plus 1 μg/ml mouse anti-maytansine antibody and incubated in ice for 45 minutes. The cells were washed as above and resuspended in FACS buffer containing 2 ug/ml goat anti-mouse kappa RPE. The cells were incubated on ice for 45 minutes then washed as above. The cells were resuspended in FACS buffer at 200 μl per well. Mean fluorescence intensity of each sample was determined using a Guava EasyCyte Plus HT Flow Cytometer (96 well plate formats) and the raw data was analyzed using the Guava Cytosoft."}, "LY75 883-901": {"molecular_target": "T2, LY75 883-901 (human)", "T2 construct": "Region put together from overlapping 8mers on the array", "T2 peptide": "DDHFTYSRYPWHRFPVTFG", "assay": "peptide microarray; region identified by signal above the cut off", "protocol": "(§1) The peptide microarray analysis was performed by LC Sciences, Houston Tex., in brief the method comprised the following steps: —Contiguous 8mer peptides of LY75 protein having […] spanning residues 216 to 1666 of the full length LY75 protein were synthesized and immobilized on a microarray chip. The chip comprised three panels such that the experiment was performed in triplicate. […] The binding assay was performed under the following conditions:—\n(§2) The microarray comprising the contiguous peptides in triplicate was washed with 1 mL of binding buffer at 4° C. for 20 min. […] The array was again washed with 0.5 mL of washing buffer at 4° C. for 30 min then incubated with 25 ng/mL anti-human IgG Alexa 647 conjugate in binding buffer (pH 7.0) at 4° C. for 1 hr. The array was again washed with 0.5 mL of washing buffer at 4° C. for 30 min."}, "LY75 1029-1040": {"molecular_target": "T3, LY75 1029-1040 (human)", "T3 construct": "Region put together from overlapping 8mers on the array", "T3 peptide": "RELTYSNFHPLL", "assay": "peptide microarray; region identified by signal above the cut off", "protocol": "as §1, §2"}, "LY75 1107-1118": {"molecular_target": "T4, LY75 1107-1118 (human)", "T4 construct": "Region put together from overlapping 8mers on the array", "T4 peptide": "TVKYLNNLYKII", "assay": "peptide microarray; region identified by signal above the cut off", "protocol": "as §1, §2"}, "[2]": {"molecular_target": "Contiguous 8mer peptides of LY75 protein spanning residues 216 to 1666 of the full length LY75 protein (peptide microarray)", "assay": "peptide microarray, 1 ug/mL LY75_A1, scanned at 635 nm; cut off for non-specific binding 3000"}, "PWRRGWHF": {"molecular_target": "T5, PWRRGWHF", "T5 construct": "LY75 8mer on the microarray", "T5 peptide": "PWRRGWHF", "assay": "peptide microarray, 8mer on the chip, 1 µg/mL LY75_A1, anti-human IgG Alexa 647", "protocol": "as §1, §2"}, "RRGWHFYD": {"molecular_target": "T6, RRGWHFYD", "T6 construct": "LY75 8mer on the microarray; aa 763-770 counted from Region 3 (aa761-780)", "T6 peptide": "RRGWHFYD", "assay": "peptide microarray, 8mer on the chip, 1 µg/mL LY75_A1, anti-human IgG Alexa 647", "protocol": "as §1, §2"}, "YDDREFIY": {"molecular_target": "T7, YDDREFIY", "T7 construct": "LY75 8mer on the microarray; aa 769-776 counted from Region 3 (aa761-780)", "T7 peptide": "YDDREFIY", "assay": "peptide microarray, 8mer on the chip, 1 µg/mL LY75_A1, anti-human IgG Alexa 647", "protocol": "as §1, §2"}, "EFIYLRPF": {"molecular_target": "T8, EFIYLRPF", "T8 construct": "LY75 8mer on the microarray; aa 773-780 counted from Region 3 (aa761-780)", "T8 peptide": "EFIYLRPF", "assay": "peptide microarray, 8mer on the chip, 1 µg/mL LY75_A1, anti-human IgG Alexa 647", "protocol": "as §1, §2"}, "DDHFTYSR": {"molecular_target": "T9, DDHFTYSR", "T9 construct": "LY75 8mer on the microarray", "T9 peptide": "DDHFTYSR", "assay": "peptide microarray, 8mer on the chip, 1 µg/mL LY75_A1, anti-human IgG Alexa 647", "protocol": "as §1, §2"}, "YSRYPWHR": {"molecular_target": "T10, YSRYPWHR", "T10 construct": "LY75 8mer on the microarray", "T10 peptide": "YSRYPWHR", "assay": "peptide microarray, 8mer on the chip, 1 µg/mL LY75_A1, anti-human IgG Alexa 647", "protocol": "as §1, §2"}, "SRYPWHRF": {"molecular_target": "T11, SRYPWHRF", "T11 construct": "LY75 8mer on the microarray", "T11 peptide": "SRYPWHRF", "assay": "peptide microarray, 8mer on the chip, 1 µg/mL LY75_A1, anti-human IgG Alexa 647", "protocol": "as §1, §2"}, "WHRFPVTF": {"molecular_target": "T12, WHRFPVTF", "T12 construct": "LY75 8mer on the microarray", "T12 peptide": "WHRFPVTF", "assay": "peptide microarray, 8mer on the chip, 1 µg/mL LY75_A1, anti-human IgG Alexa 647", "protocol": "as §1, §2"}, "ELTYSNFH": {"molecular_target": "T13, ELTYSNFH", "T13 construct": "LY75 8mer on the microarray", "T13 peptide": "ELTYSNFH", "assay": "peptide microarray, 8mer on the chip, 1 µg/mL LY75_A1, anti-human IgG Alexa 647", "protocol": "as §1, §2"}, "TYSNFHPL": {"molecular_target": "T14, TYSNFHPL", "T14 construct": "LY75 8mer on the microarray", "T14 peptide": "TYSNFHPL", "assay": "peptide microarray, 8mer on the chip, 1 µg/mL LY75_A1, anti-human IgG Alexa 647", "protocol": "as §1, §2"}, "TSCSERHF": {"molecular_target": "T15, TSCSERHF", "T15 construct": "LY75 8mer on the microarray", "T15 peptide": "TSCSERHF", "assay": "peptide microarray, 8mer on the chip, 1 µg/mL LY75_A1, anti-human IgG Alexa 647", "protocol": "as §1, §2"}, "SERHFVSL": {"molecular_target": "T16, SERHFVSL", "T16 construct": "LY75 8mer on the microarray", "T16 peptide": "SERHFVSL", "assay": "peptide microarray, 8mer on the chip, 1 µg/mL LY75_A1, anti-human IgG Alexa 647", "protocol": "as §1, §2"}, "VSLCQKYS": {"molecular_target": "T17, VSLCQKYS", "T17 construct": "LY75 8mer on the microarray", "T17 peptide": "VSLCQKYS", "assay": "peptide microarray, 8mer on the chip, 1 µg/mL LY75_A1, anti-human IgG Alexa 647", "protocol": "as §1, §2"}, "VKYLNNLY": {"molecular_target": "T18, VKYLNNLY", "T18 construct": "LY75 8mer on the microarray", "T18 peptide": "VKYLNNLY", "assay": "peptide microarray, 8mer on the chip, 1 µg/mL LY75_A1, anti-human IgG Alexa 647", "protocol": "as §1, §2"}, "YLNNLYKI": {"molecular_target": "T19, YLNNLYKI", "T19 construct": "LY75 8mer on the microarray", "T19 peptide": "YLNNLYKI", "assay": "peptide microarray, 8mer on the chip, 1 µg/mL LY75_A1, anti-human IgG Alexa 647", "protocol": "as §1, §2"}, "LNNLYKII": {"molecular_target": "T20, LNNLYKII", "T20 construct": "LY75 8mer on the microarray", "T20 peptide": "LNNLYKII", "assay": "peptide microarray, 8mer on the chip, 1 µg/mL LY75_A1, anti-human IgG Alexa 647", "protocol": "as §1, §2"}, "YFHQHSIL": {"molecular_target": "T21, YFHQHSIL", "T21 construct": "LY75 8mer on the microarray", "T21 peptide": "YFHQHSIL", "assay": "peptide microarray, 8mer on the chip, 1 µg/mL LY75_A1, anti-human IgG Alexa 647", "protocol": "as §1, §2"}, "KLSRLTYS": {"molecular_target": "T22, KLSRLTYS", "T22 construct": "LY75 8mer on the microarray", "T22 peptide": "KLSRLTYS", "assay": "peptide microarray, 8mer on the chip, 1 µg/mL LY75_A1, anti-human IgG Alexa 647", "protocol": "as §1, §2"}, "LSCYKVFH": {"molecular_target": "T23, LSCYKVFH", "T23 construct": "LY75 8mer on the microarray", "T23 peptide": "LSCYKVFH", "assay": "peptide microarray, 8mer on the chip, 1 µg/mL LY75_A1, anti-human IgG Alexa 647", "protocol": "as §1, §2"}, "SRWIQYKG": {"molecular_target": "T24, SRWIQYKG", "T24 construct": "LY75 8mer on the microarray", "T24 peptide": "SRWIQYKG", "assay": "peptide microarray, 8mer on the chip, 1 µg/mL LY75_A1, anti-human IgG Alexa 647", "protocol": "as §1, §2"}, "RWIQYKGH": {"molecular_target": "T25, RWIQYKGH", "T25 construct": "LY75 8mer on the microarray", "T25 peptide": "RWIQYKGH", "assay": "peptide microarray, 8mer on the chip, 1 µg/mL LY75_A1, anti-human IgG Alexa 647", "protocol": "as §1, §2"}}, "data": [{"binder": "B1", "values": [{"measurement": "binding result", "setting": "[1]", "value": "binds"}, {"measurement": "binding result", "setting": "LY75 883-901", "value": "binds"}, {"measurement": "binding result", "setting": "LY75 1029-1040", "value": "binds"}, {"measurement": "binding result", "setting": "LY75 1107-1118", "value": "binds"}, {"measurement": "average signal intensity of all spots (signal intensity (scale 1-65535))", "setting": "[2]", "value": 885}, {"measurement": "maximum signal intensity (signal intensity (scale 1-65535))", "setting": "[2]", "value": 25000}, {"measurement": "binding result", "setting": "PWRRGWHF", "value": "binds"}, {"measurement": "binding result", "setting": "RRGWHFYD", "value": "binds"}, {"measurement": "binding result", "setting": "YDDREFIY", "value": "binds"}, {"measurement": "binding result", "setting": "EFIYLRPF", "value": "binds"}, {"measurement": "binding result", "setting": "DDHFTYSR", "value": "binds"}, {"measurement": "binding result", "setting": "YSRYPWHR", "value": "binds"}, {"measurement": "binding result", "setting": "SRYPWHRF", "value": "binds"}, {"measurement": "binding result", "setting": "WHRFPVTF", "value": "binds"}, {"measurement": "binding result", "setting": "ELTYSNFH", "value": "binds"}, {"measurement": "binding result", "setting": "TYSNFHPL", "value": "binds"}, {"measurement": "binding result", "setting": "TSCSERHF", "value": "binds"}, {"measurement": "binding result", "setting": "SERHFVSL", "value": "binds"}, {"measurement": "binding result", "setting": "VSLCQKYS", "value": "binds"}, {"measurement": "binding result", "setting": "VKYLNNLY", "value": "binds"}, {"measurement": "binding result", "setting": "YLNNLYKI", "value": "binds"}, {"measurement": "binding result", "setting": "LNNLYKII", "value": "binds"}, {"measurement": "binding result", "setting": "YFHQHSIL", "value": "binds"}, {"measurement": "binding result", "setting": "KLSRLTYS", "value": "binds"}, {"measurement": "binding result", "setting": "LSCYKVFH", "value": "binds"}, {"measurement": "binding result", "setting": "SRWIQYKG", "value": "binds"}, {"measurement": "binding result", "setting": "RWIQYKGH", "value": "binds"}]}]}
